Measured values from US20030087316A1, “Diagnostic markers of liver dysfunction” (priority 2001, published 2003).
Entries after “also recorded” stand apart in the source; their conditions may differ. Non-standard residues stand in square brackets, D forms with d. No end group written: not given here. *: point of attachment. pNA = O=[N+]([O-])c1ccc(N*)cc1

T1: C1s (Homo sapiens, UniProt P09871)
T1 construct: purchased Advanced Research Technologies (San Diego, Calif.)
T1 sequence (P09871 438-688 limits assumed): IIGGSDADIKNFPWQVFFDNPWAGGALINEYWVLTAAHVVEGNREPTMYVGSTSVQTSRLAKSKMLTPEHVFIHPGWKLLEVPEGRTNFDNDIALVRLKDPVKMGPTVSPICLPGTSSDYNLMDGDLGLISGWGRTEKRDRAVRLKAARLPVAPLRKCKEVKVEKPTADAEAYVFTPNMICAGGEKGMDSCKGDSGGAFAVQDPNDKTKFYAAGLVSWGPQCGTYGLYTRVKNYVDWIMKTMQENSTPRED
T1 sequence (P09871 16-437 partner limits assumed): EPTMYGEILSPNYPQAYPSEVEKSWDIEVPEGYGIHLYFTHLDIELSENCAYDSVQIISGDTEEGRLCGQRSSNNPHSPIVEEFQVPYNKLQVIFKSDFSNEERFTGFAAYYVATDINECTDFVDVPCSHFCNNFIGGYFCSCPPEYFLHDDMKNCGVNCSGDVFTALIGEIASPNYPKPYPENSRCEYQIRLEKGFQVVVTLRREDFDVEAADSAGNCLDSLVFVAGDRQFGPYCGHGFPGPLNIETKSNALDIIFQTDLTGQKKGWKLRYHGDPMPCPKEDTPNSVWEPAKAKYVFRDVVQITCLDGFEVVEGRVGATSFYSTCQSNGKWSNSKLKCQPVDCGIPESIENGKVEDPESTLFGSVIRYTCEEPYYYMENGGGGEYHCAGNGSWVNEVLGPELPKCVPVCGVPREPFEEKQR

B1: SBTI: soybean trypsin inhibitor, purchased from Sigma Chemical (protein, UniProt P01070 25-205, looked up)
Trypsin inhibitor A: DFVLDNEGNPLENGGTYYILSDITAFGGIRAAPTGNERCPLTVVQSRNELDKGIGTIISSPYRIRFIAEGHPLSLKFDSFAVIMLCVGIPTEWSVVEDLPEGPAVKIGENKDAMDGWFRLERVSDDEFNNYKLVFCPQQAEDDKCGDIGISIDHDDGTRRLVVSKNKPLVVQFQKLDKESL

How the values were obtained:
trypsin [1] = test: Peptidase (amidolytic) activity of purified trypsin, chromogenic substrate, OD 405 nm; type: biochemical; conditions: enzyme 10 nM, 37° C., 15 min (FIG. 7)
C1s [2] = molecular target: T1, C1s; test: Peptidase (amidolytic) activity of purified C1s, chromogenic substrate, 96-well plate, OD 405 nm; type: biochemical; conditions: enzyme 10 nM, 37° C., 15 min (FIG. 7)
β-Factor XIIa (β-FXIIa) = molecular target: T2, β-Factor XIIa (β-FXIIa) (Homo sapiens, UniProt P00748); test: Peptidase (amidolytic) activity of purified β-FXIIa, chromogenic substrate, OD 405 nm; type: biochemical; conditions: for Cleavage of the substrate by β-FXIIa, in words: enzyme 10 nM, 37° C., 15 min (FIG. 7)
T2 construct: β-Factor XIIa (β-FXIIa) was kindly provided by Dr. Mary J. Heeb; gift of Dr. Mary J. Heeb, The Scripps Research Institute
T2 sequence (P00748 373-615 limits assumed, other chains not shown): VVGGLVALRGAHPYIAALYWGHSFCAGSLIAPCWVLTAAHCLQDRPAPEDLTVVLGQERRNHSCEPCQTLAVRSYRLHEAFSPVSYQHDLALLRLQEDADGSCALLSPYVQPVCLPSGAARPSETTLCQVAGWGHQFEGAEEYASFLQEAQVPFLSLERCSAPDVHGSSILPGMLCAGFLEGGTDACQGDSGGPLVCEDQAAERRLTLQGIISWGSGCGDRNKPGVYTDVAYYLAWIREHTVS
Method: (§1) The peptidase activity in plasma samples or of the purified enzymes were routinely determined at 37° C. in a 96-well plate. Each well contained 0.5 mM substrate in 100 μl of Tris-buffered saline (TBS)-EDTA buffer (50 mM Tris/150 mM NaCl/10 mM EDTA, pH 7.8) and the reaction was monitored using a microplate reader (Titertek Multiscan, Labsystems, Needham Heights, Mass.).
(§2) […] EDTA plasma samples from LTR were diluted 10 or 20-fold with TBS-EDTA. The chromogenic substrate AGLTR-pNA was used for all enzymes and LTR samples except C1s where the substrate S2288 was used. Based on the initial rate of increase in OD at 405 nm, the residual free enzyme level was calculated and expressed as a percentage of total activity without inhibitor added.
(§3) Ten-fold diluted normal EDTA plasma was added to each enzyme. […] LTR samples were 10 or 20-fold diluted with TBS-EDTA. The chromogenic substrate AGLTR-pNA was used for all enzymes and LTP samples except C1s where the substrate S2288 was used. Based on the initial rate of increase in OD at 405 nm, the residual free enzyme was calculated and expressed as a percentage of total activity determined without inhibitor added.

thrombin = molecular target: T3, thrombin (Homo sapiens, UniProt P00734); test: Peptidase (amidolytic) activity of purified thrombin, chromogenic substrate, OD 405 nm; type: biochemical; conditions: for Cleavage of the substrate by thrombin, in words: enzyme 10 nM, 37° C., 15 min (FIG. 7)
T3 construct: purchased Calbiochem-Novabiochem Corp (La Jolla, Calif.)

plasma kallikrein = molecular target: T4, plasma kallikrein (Homo sapiens, UniProt P03952); test: Peptidase (amidolytic) activity of purified plasma kallikrein, chromogenic substrate, OD 405 nm; type: biochemical; conditions: for Cleavage of the substrate by plasma kallikrein, in words: enzyme 10 nM, 37° C., 15 min (FIG. 7)
T4 construct: The light chain of kallikrein contains the enzymatic domain; purchased Calbiochem-Novabiochem Corp (La Jolla, Calif.)
T4 sequence (P03952 391-638 limits assumed): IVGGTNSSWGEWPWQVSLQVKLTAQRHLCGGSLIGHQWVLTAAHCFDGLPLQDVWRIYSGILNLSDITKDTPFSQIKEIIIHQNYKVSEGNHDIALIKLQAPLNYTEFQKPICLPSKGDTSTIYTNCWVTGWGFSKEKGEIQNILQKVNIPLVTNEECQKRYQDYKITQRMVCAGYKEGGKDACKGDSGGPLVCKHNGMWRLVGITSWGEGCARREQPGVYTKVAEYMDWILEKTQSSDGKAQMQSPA
T4 sequence (P03952 20-390 partner limits assumed): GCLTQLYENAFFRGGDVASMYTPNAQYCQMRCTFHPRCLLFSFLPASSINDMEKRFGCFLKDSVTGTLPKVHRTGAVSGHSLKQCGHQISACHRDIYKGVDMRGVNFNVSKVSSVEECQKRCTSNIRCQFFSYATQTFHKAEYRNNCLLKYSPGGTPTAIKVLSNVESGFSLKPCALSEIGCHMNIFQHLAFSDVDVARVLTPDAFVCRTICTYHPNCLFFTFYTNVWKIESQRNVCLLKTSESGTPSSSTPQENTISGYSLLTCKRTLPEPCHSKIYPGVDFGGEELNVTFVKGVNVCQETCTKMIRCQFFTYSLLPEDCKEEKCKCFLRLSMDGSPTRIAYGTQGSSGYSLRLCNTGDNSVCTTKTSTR
Method: as §1, §2, §3

plasmin [3] = molecular target: T5, plasmin (Homo sapiens, UniProt P00747); test: Peptidase (amidolytic) activity of purified plasmin, chromogenic substrate, OD 405 nm; type: biochemical; conditions: enzyme 10 nM, 37° C., 15 min (FIG. 7)
T5 construct: purchased Calbiochem-Novabiochem Corp (La Jolla, Calif.)
T5 sequence (P00747 581-810 limits assumed, species assumed): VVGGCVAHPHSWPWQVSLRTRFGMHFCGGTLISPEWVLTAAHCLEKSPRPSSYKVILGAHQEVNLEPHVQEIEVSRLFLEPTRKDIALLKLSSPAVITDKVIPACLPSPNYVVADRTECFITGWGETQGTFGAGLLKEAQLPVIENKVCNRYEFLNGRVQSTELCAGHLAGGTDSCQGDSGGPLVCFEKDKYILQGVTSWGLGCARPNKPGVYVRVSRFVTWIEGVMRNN
T5 sequence (P00747 97-580 partner limits assumed, species assumed): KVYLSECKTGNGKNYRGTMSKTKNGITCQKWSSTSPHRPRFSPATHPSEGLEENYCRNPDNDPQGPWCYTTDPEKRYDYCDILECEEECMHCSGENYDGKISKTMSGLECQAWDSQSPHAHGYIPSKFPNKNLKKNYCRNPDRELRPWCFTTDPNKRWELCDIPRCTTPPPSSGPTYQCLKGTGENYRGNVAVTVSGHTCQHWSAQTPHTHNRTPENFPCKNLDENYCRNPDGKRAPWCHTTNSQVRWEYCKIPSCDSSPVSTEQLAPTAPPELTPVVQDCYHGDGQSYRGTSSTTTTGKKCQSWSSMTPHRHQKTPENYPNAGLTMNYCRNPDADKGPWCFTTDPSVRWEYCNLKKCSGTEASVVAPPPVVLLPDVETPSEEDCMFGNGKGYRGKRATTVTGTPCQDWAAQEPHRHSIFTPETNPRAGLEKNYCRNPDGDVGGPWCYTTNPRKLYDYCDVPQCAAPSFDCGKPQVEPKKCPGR

[4] = test system: proteinase(s) in EDTA plasma from LTR (kallikrein-like peptidase); test: Peptidase activity in EDTA plasma from liver transplant recipients (LTR), chromogenic substrate, OD 405 nm; type: biochemical, human; conditions: Sephacryl S-300 fractions of LTR plasma, 37° C. (FIG. 4)
tissue kallikrein = test: Peptidase activity of purified tissue kallikrein on chromogenic substrates; type: biochemical; conditions: enzyme 10 nM, 37° C., 15 min (FIG. 7)
Method: as §1

C1s [5] = molecular target: T1, C1s; test: Peptidase (amidolytic) activity of purified C1s, chromogenic substrate, 96-well plate, OD 405 nm; type: biochemical
Method: as §1
(§4) The enzymes C1s (100 nM), plasm in (100 nM), thrombin (100 nM), plasma kallikrein (20 nM), β-FXIIa (100 nM), trypsin (16 nM) or LTR EDTA plasma samples were incubated for 60 min at 4° C. with TBS-EDTA buffer containing either LBTI (1 mg/ml), SBTI (I mg/ml), aprotinin (0.075 mg/ml), benzamidine (50 mM), or Futhan (0.1 mg/ml), before mixing with the substrate. EDTA plasma samples from LTR were diluted 10 or 20-fold with TBS-EDTA. The chromogenic substrate AGLTR-pNA was used for all enzymes and LTR samples except C1s where the substrate S2288 was used. Based on the initial rate of increase in OD at 405 nm, the residual free enzyme level was calculated and expressed as a percentage of total activity without inhibitor added.
(§5) Ten-fold diluted normal EDTA plasma was added to each enzyme. The enzymes C1s (100 nM), plasmin (100 nM), thrombin (100 nM), plasma kallikrein (20 nM), β-FXIIa (100 nM), trypsin (16 nM) or LTR EDTA plasma samples were incubated for 60 min at 4° C. with TBS-EDTA buffer containing either C1INH (40 μg/ml), bdellin (50 μg/ml), hirudin (50 U/ml), PPACK 11(10 μM), or CTI (100 μg/ml), before adding the substrate. LTR samples were 10 or 20-fold diluted with TBS-EDTA. The chromogenic substrate AGLTR-pNA was used for all enzymes and LTP samples except C1s where the substrate S2288 was used. Based on the initial rate of increase in OD at 405 nm, the residual free enzyme was calculated and expressed as a percentage of total activity determined without inhibitor added.

trypsin [6] = test: Peptidase (amidolytic) activity of purified trypsin, chromogenic substrate, OD 405 nm; type: biochemical; conditions: Table 2
Method: as §1, §4

[7] = test system: proteinase(s) in EDTA plasma from LTR (kallikrein-like peptidase); test: Peptidase activity in EDTA plasma from liver transplant recipients (LTR), chromogenic substrate, OD 405 nm; type: biochemical, human
Method: Blood samples were drawn into 5 ml EDTA tubes (Venoject; Terumo Corp., Elkton, Md.). The plasma was collected immediately by centrifugation at 2,000×g for 15 min at 4° C. The plasma samples were either processed immediately for analysis or stored at −70° C. Frozen samples were thawed at 4° C. prior to analysis.
as §1, §4, §5

plasmin [8] = molecular target: T5, plasmin; test: Peptidase (amidolytic) activity of purified plasmin, chromogenic substrate, OD 405 nm; type: biochemical; conditions: Table 2
Method: as §1, §4, §5

[9] = text on Tables 2 and 3, concentrations as there

| Molecule | Cleavage of the substrate by trypsin, in words (trypsin [1]) | Cleavage of the substrate by C1s, in words (C1s [2]) | Cleavage of the substrate by β-FXIIa, in words (β-Factor XIIa (β-FXIIa)) | Cleavage of the substrate by thrombin, in words (thrombin) | Cleavage of the substrate by plasma kallikrein, in words (plasma kallikrein) | Cleavage of the substrate by plasmin, in words (plasmin [3]) | Rate of conversion of the substrate by gel filtered LTR plasma, relative to AGLTR-pNA, in words [4] | Cleavage of the substrate by tissue kallikrein, in words (tissue kallikrein) | also measured |
| --- | --- | --- | --- | --- | --- | --- | --- | --- | --- |
| [dI]-Pro-Arg-pNA [S2288] | cleaved substrate S2288 more efficiently than S2302 | least active on these substrates | least active on these substrates | cleaved substrate S2288 more efficiently than S2302; also recorded: preferred S2288 over either AGLTR-pNA or S2302 | cleaved S2302 more rapidly than S2288 | least active on these substrates | somewhat greater than that using AGLTR-pNA | least active on these substrates | – |
| Ac-Ala-Gly-Leu-Thr-Arg-p-nitroanilide (Ac-AGLTR-pNA; SMILES CC(=O)N[C@@H](C)C(=O)NCC(=O)N[C@@H](CC(C)C)C(=O)N[C@H](C(=O)N[C@@H](CCCNC(=N)N)C(=O)Nc1ccc([N+](=O)[O-])cc1)[C@@H](C)O) | cleaved AGLTR-pNA relatively efficiently | almost no ability to cleave this substrate; also recorded: neither C1s nor any of the other proteinases efficiently cleaved this substrate | almost no ability to cleave this substrate | poorly cleaved | cleaved AGLTR-pNA relatively efficiently | poorly cleaved | – | almost no ability to cleave this substrate | – |
| [dP]-Phe-Arg-pNA [S2302] | cleaved substrate S2288 more efficiently than S2302 | least active on these substrates | least active on these substrates | cleaved substrate S2288 more efficiently than S2302 | cleaved S2302 more rapidly than S2288 | least active on these substrates | somewhat greater than that using AGLTR-pNA | least active on these substrates | – |
| B1 | – | – | – | – | – | – | – | – | % Residual activity, C1s (C1s [5]; Table 2, C1s 100 nM, substrate S2288, 60 min at 4° C. with LBTI 1 mg/ml, SBTI I mg/ml, aprotinin 0.075 mg/ml, benzamidine 50 mM or Futhan 0.1 mg/ml, % of total activity without inhibitor): 123.6%; Inhibition of C1s, in words (C1s [5]; [9]): but not C1s; Inhibition of trypsin amidolytic activity, in words (trypsin [6]; concentrations as there): efficiently inhibited; % Residual activity, Trypsin (trypsin [6]; trypsin 16 nM, substrate AGLTR-pNA, 60 min at 4° C. with LBTI 1 mg/ml, SBTI I mg/ml, aprotinin 0.075 mg/ml, benzamidine 50 mM or Futhan 0.1 mg/ml): 5.3%; % Residual activity, β-FXIIa (β-Factor XIIa (β-FXIIa); Table 2, β-FXIIa 100 nM, substrate AGLTR-pNA, 60 min at 4° C. with LBTI 1 mg/ml, SBTI I mg/ml, aprotinin 0.075 mg/ml, benzamidine 50 mM or Futhan 0.1 mg/ml): 109.1%; % Residual activity, Thrombin (thrombin; Table 2, thrombin 100 nM, substrate AGLTR-pNA, 60 min at 4° C. with LBTI 1 mg/ml, SBTI I mg/ml, aprotinin 0.075 mg/ml, benzamidine 50 mM or Futhan 0.1 mg/ml): 46.7%; % Residual activity, LTR 1 ([7]; Table 2, LTR 1 EDTA plasma diluted 10 or 20-fold, substrate AGLTR-pNA, 60 min at 4° C. with LBTI 1 mg/ml, SBTI I mg/ml, aprotinin 0.075 mg/ml, benzamidine 50 mM or Futhan 0.1 mg/ml): 44.2%; % Residual activity, LTR 2 ([7]; Table 2, LTR 2 EDTA plasma diluted 10 or 20-fold, substrate AGLTR-pNA, 60 min at 4° C. with LBTI 1 mg/ml, SBTI I mg/ml, aprotinin 0.075 mg/ml, benzamidine 50 mM or Futhan 0.1 mg/ml): 61.9%; % Residual activity, LTR 3 ([7]; Table 2, LTR 3 EDTA plasma diluted 10 or 20-fold, substrate AGLTR-pNA, 60 min at 4° C. with LBTI 1 mg/ml, SBTI I mg/ml, aprotinin 0.075 mg/ml, benzamidine 50 mM or Futhan 0.1 mg/ml): 28.8%; Inhibition of the LTR plasma peptidase activity, in words [7, 9]: only partially effective; Inhibition of plasmin amidolytic activity, in words (plasmin [8]; concentrations as there): efficiently inhibited; % Residual activity, Plasmin (plasmin [8]; plasmin 100 nM, substrate AGLTR-pNA, 60 min at 4° C. with LBTI 1 mg/ml, SBTI I mg/ml, aprotinin 0.075 mg/ml, benzamidine 50 mM or Futhan 0.1 mg/ml): 3.7%; % Residual activity, Plasma Kallikrein (plasma kallikrein; Table 2, plasma kallikrein 20 nM, substrate AGLTR-pNA, 60 min at 4° C. with LBTI 1 mg/ml, SBTI I mg/ml, aprotinin 0.075 mg/ml, benzamidine 50 mM or Futhan 0.1 mg/ml): 2.2%; Inhibition of purified plasma kallikrein activity, in words (plasma kallikrein; [9]): efficiently inhibited |
